Measurements: US20150216961A1 (MEDICAGO, published 2015)

Target: T1, VP2 from Rotavirus A WA strain (Rotavirus A WA strain, UniProt P11231 1-890)
T1 construct: Expressed in N. benthamiana from construct 1710 and purified as part of rotavirus-like particles; also called RVA(WA) VP2; VP2(opt)
T1 sequence: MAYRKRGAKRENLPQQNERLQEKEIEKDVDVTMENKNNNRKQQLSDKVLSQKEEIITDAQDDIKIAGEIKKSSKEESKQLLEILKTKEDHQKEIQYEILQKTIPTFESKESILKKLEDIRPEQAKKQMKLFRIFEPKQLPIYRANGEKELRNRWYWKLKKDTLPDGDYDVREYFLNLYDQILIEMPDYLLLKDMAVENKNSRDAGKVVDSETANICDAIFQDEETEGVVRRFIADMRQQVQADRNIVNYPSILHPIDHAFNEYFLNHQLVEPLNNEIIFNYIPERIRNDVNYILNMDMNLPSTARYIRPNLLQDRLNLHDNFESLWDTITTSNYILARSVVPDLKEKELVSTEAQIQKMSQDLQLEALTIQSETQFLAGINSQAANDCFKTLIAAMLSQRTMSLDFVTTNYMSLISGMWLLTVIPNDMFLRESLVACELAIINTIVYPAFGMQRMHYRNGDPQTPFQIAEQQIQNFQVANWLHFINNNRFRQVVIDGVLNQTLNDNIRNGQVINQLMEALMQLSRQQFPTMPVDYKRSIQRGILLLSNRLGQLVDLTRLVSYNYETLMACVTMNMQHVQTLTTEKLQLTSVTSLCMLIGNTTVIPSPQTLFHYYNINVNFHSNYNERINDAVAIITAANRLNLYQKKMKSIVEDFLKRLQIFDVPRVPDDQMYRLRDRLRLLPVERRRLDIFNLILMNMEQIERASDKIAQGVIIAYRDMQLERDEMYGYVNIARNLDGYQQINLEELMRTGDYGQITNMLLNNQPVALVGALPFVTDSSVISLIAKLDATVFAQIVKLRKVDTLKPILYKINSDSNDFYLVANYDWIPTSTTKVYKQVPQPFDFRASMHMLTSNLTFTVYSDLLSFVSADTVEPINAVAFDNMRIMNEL
Assay: co-expression in N. benthamiana, iodixanol gradient, cryo-electron microscopy

B1: VP6 from Rotavirus A WA strain (other)
chain: MEVLYSLSKTLKDARDKIVEGTLYSNVSDLIQQFNQMIVTMNGNDFQTGGIGNLPVRNWTFDFGLLGTTLLNLDANYVENARTIIEYFIDFIDNVCMDEMARESQRNGVAPQSEALRKLAGIKFKRINFDNSSEYIENWNLQNRRQRTGFVFHKPNIFPYSASFTLNRSQPMHDNLMGTMWLNAGSEIQVAGFDYSCAINAPANIQQFEHIVQLRRALTTATITLLPDAERFSFPRVINSADGATTWFFNPVILRPNNVEVEFLLNGQIINTYQARFGTIIARNFDAIRLLFQLMRPPNMTPAVNALFPQAQPFQHHATVGLTLRIESAVCESVLADANETLLANVTAVRQEYAIPVGPVFPPGMNWTELITNYSPSREDNLQRVFTVASIRSMLIK
notes: Expressed in N. benthamiana from construct 1713 and purified as part of rotavirus-like particles; also called RVA(WA) VP6; VP6(opt)
B1: binds.
